Experimental data as given in patent US8273342B2, “Anti-virus therapy for respiratory diseases” (University of Southampton, priority 2004, dated 2012).

Legend:
rhinovirus [1] = conditions: general population volunteers, Higgins et al. 1986; cited from earlier work
natural colds = conditions: Sperber et al. 1989; cited from earlier work
RV16 [2] = test: RV16 viral RNA in BEAS2B cell lysates, TaqMan PCR; assay type: cell-based, rhinovirus; conditions: BEAS2B cells treated 24 h with different doses of IFN-λ1 before infection
Protocol: (§1) The human bronchial epithelial cell-line BEAS2B was infected with RV. TaqMan® PCR was used to identify IFN-λs mRNA expression and a bioassay was employed for corresponding protein production. BEAS2B cells were treated for 24 h with different doses of IFN-λ1 before infection with RV. Both TaqMan® PCR for viral RNA in cell lysates and viral titration of the BEAS2B supernatant were performed to investigate the antiviral effect.
(§2) The human bronchial epithelial cell-line BEAS2B and bronchial primary cells from asthmatics (6) and normal patients (5) were infected with RV16. TaqMan® PCR for IFN-λ mRNA expression was used. BEAS2B cells were treated with IFN-λ1 before infection with RV16. Both TaqMan® PCR for viral RNA in cell lysates and viral titration of the BEAS2B supernatant were performed to investigate the antiviral effect. TaqMan® PCR for viral RNA in cell lysates of primary cells was used also to test weather RV16 infectivity was different between primary cells from asthmatics and normals.

RV16 [3] = test: RV16 virus release, viral titration of BEAS2B supernatant; assay type: cell-based, rhinovirus; conditions: BEAS2B cells treated 24 h with different doses of IFN-λ1 before infection
Protocol: as §1, §2

rhinovirus [4] = test: Virus induced cytopathic effect in HeLa cell titration assay; assay type: cell-based
BEAS2B cells = test: Induction of type I and type III interferons in BEAS2B cells; assay type: cell-based, human

B1: IFN-β-ser: recombinant interferon-beta serine, nasal drops tested in published prophylaxis trials (protein, UniProt P01574 22-187, looked up, variant C17S)
Interferon beta: MSYNLLGFLQRSSNFQSQKLLWQLNGRLEYCLKDRMNFDIPEEIKQLQQFQKEDAALTIYEMLQNIFAIFRQDSSSTGWNETIVENLLANVYHQINHLKTVLEEKLEKEDFTRGKLMSSLHLKRYYGRILHYLKAKEYSHCAWTIVRVEILRNFYFINRLTGYLRN
Question: With B1 as the molecule, how does the “effect against experimental rhinovirus infection” value (rhinovirus [1]) read?
Answer: Its value is “promising beneficial effects”.

Question: What about the “prophylaxis of natural colds” value (natural colds) of the same molecule?
Answer: The value was “ineffective”.

B2: IFN-λ1: type III interferon, Interferon λ-1 also known as IL-29, amino acid sequence SEQ ID NO: 5 (protein, listed as Homo sapiens)
chain: MAAAWTVVLVTLVLGLAVAGPVPTSKPTTTGKGCHIGRFKSLSPQELASFKKARDALEESLKLKNWSCSSPVFPGNWDLRLLQVRERPVALEAELALTLKVLEAAAGPALEDVLDQPLHTLHHILSQLQACIQPQPTAGPRPRGRLHHWLHRLQEAPKKESAGCLEASVTFNLFRLLTRDLKYVADGNLCLRTSTHPEST
Question: With B2 as the molecule, how does the “rhinovirus 16 viral RNA in cell lysates” value (RV16 [2]) read?
Answer: Its value is “dose-dependent anti-viral effect”.

Question: And the “rhinovirus 16 viral RNA in cell lysates” value (RV16 [2]; listed as IFNλ-1)?
Answer: Its value is “reducing rhinovirus 16 viral RNA expression”.

Question: And the “virus release in the supernatant by viral titration” value (RV16 [3])?
Answer: Its value is “dose-dependent anti-viral effect”.

Question: And the “virus release in the supernatant by viral titration” value (RV16 [3]; listed as IFNλ-1)?
Answer: The value was “reducing virus release”.

Question: And the “virus induced cytopathic effect” value (rhinovirus [4])?
Answer: Its value is “inhibited”.

Question: And the “induction of IFNλ-1, IFNλ2-3 and interferon β” value (BEAS2B cells)?
Answer: The value was “induces itself as well as IFNλ2-3 and interferon β”.
